Biological target: human 26S proteasome (human) (UniProt O00487)
Assay: single-molecule TIRF microscopy

UniProt O00487, sequence (O00487 whole entry, looked up): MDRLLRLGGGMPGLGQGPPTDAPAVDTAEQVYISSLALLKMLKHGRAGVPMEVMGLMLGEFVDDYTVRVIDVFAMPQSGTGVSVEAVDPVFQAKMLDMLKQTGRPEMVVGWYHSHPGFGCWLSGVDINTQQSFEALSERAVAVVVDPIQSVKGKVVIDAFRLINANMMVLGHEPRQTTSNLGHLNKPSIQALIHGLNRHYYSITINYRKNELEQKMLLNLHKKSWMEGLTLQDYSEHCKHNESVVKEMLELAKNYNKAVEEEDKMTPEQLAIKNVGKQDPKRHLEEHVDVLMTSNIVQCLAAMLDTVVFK

half-life of the proteasome-substrate complex [s] | puncta density relative to pK48-polyUb-GFP [fold] | Substance
2.82 | 5 | K48-polyUb-GFP (from UniProt P0CG48)
0.73 |  | pK48-polyUb-GFP (from UniProt P0CG48)
